In this assay the target is wild-type PERK BiFC construct (pEZY BiFC pre-NV(CV)-PERK) (human) (UniProt Q9NZJ5). Kind of assay: split reporter.
UniProt Q9NZJ5, sequence (Q9NZJ5 30-1116): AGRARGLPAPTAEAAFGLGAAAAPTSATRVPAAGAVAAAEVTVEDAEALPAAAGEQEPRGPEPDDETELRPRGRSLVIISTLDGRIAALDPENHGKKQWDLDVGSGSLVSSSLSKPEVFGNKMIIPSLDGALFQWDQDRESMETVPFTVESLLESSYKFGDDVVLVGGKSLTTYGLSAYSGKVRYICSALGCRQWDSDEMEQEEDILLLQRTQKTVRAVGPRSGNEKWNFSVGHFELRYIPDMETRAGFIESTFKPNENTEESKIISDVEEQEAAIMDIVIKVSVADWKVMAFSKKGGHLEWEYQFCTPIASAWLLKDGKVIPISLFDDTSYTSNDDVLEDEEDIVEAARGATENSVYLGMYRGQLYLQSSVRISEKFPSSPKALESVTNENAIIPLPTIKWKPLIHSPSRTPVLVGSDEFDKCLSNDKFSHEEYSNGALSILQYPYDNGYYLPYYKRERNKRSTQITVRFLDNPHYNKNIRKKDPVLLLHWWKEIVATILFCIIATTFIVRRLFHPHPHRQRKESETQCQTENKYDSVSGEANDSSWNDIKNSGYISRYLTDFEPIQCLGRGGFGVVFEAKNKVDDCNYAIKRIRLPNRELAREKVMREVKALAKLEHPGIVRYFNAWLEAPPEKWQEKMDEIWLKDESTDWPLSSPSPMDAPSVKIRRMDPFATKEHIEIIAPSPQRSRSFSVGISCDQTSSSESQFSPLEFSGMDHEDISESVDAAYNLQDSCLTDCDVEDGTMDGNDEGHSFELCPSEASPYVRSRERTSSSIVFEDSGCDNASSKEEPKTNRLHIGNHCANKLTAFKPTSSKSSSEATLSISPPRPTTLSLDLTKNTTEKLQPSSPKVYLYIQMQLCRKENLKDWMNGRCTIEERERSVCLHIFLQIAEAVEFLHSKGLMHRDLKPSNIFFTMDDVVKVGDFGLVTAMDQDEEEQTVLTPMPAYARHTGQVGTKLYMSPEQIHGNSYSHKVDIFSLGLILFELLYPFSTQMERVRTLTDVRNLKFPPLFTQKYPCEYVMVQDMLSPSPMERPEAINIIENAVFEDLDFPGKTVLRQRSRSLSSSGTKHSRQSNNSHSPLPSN

Regarding “CDNF K122A BiFC construct (natural protein)”, the BiFC fluorescent signal relative to wt CDNF and the other mutants came to 5 times lower.
The substance “CDNF BiFC construct (pEZY BiFC pre-CDNF-NV(CV)) (from UniProt Q49AH0 25-187) (natural protein)” registered a BiFC fluorescence intensity relative to the CDNF-IRE1α interaction of 7 times higher.

(Values after paper doi:10.1101/2024.12.17.628889.)
